Where two headings read alike, the source gives them in different places.
Legend:
[1] = biological target: IgG1 heavy chain with CH3 construct 63 (L351D) (human) [IgG part: P01857]; test: native MS; transfection ZO (1:1): vectors XIII+XVI co-expressed
[2] = biological target: IgG1 heavy chain with CH3 construct 63 (L351D) (human) [IgG part: P01857]; test: native MS; transfection ZT (3:1): vectors XIII+XVI co-expressed
[3] = biological target: IgG1 heavy chain with CH3 construct 63 (L351D) (human) [IgG part: P01857]; test: native MS; transfection ZU (1:1): vectors XIII+XVI co-expressed
[4] = biological target: IgG1 heavy chain with CH3 construct 63 (L351D) (human) [IgG part: P01857]; test: native MS; transfection ZV (1:3): vectors XIII+XVI co-expressed
[5] = biological target: IgG1 heavy chain with CH3 construct 63 (L351D) (human) [IgG part: P01857]; test: native MS; transfection ZW (1:1): vectors XIII+XVI co-expressed
[6] = biological target: IgG1 heavy chain with CH3 construct 63 (L351D) (human) [IgG part: P01857]; test: native MS; combination 2 co-expressed (A: VH MF1337, B: VH MF1122)
[7] = biological target: IgG1 heavy chain with CH3 construct 63 (L351D) (human) [IgG part: P01857]; test: native MS; combination 7 co-expressed (A: VH MF1337, B: VH MF1122)
[8] = biological target: IgG1 heavy chain with CH3 construct 63 (L351D) (human) [IgG part: P01857]; test: SDS-PAGE of protein A-purified supernatant; construct expressed alone
[9] = biological target: IgG1 heavy chain with CH3 construct 65 (S354D, Y349D) (human) [IgG part: P01857]; test: native MS; transfection ZQ: vectors XII+XVIII co-expressed
[10] = biological target: IgG1 heavy chain with CH3 construct 4 (K392D, D399K, K409D) (human) [IgG part: P01857]; test: native MS; transfection M: vectors I+II co-expressed 1:1
[11] = biological target: IgG1 heavy chain with CH3 construct 4 (K392D, D399K, K409D) (human) [IgG part: P01857]; test: native MS; transfection O: vectors I+II+III co-expressed 1:1:1
[12] = biological target: IgG1 heavy chain with CH3 construct 4 (K392D, D399K, K409D) (human) [IgG part: P01857]; test: native MS; transfection V: vectors I+II+III co-expressed 1:1:10
[13] = biological target: IgG1 heavy chain with CH3 construct 4 (K392D, D399K, K409D) (human) [IgG part: P01857]; test: native MS; transfection G: vector II alone (VH MF1025, construct 4)
[14] = biological target: IgG1 heavy chain with CH3 construct 2 (K392D, K409D) (human) [IgG part: P01857]
[15] = biological target: IgG1 heavy chain with CH3 construct 2 (K392D, K409D) (human) [IgG part: P01857]; test: native MS; transfection I: vectors IV+V co-expressed 1:1
[16] = biological target: IgG1 heavy chain with CH3 construct 3 (K392D, K409D, K439D) (human) [IgG part: P01857]; test: native MS; transfection J: vectors IV+VII co-expressed 1:1
[17] = biological target: IgG1 heavy chain with CH3 construct 1 (E356K, D399K) (human) [IgG part: P01857]; test: SDS-PAGE of protein A-purified supernatant; construct expressed alone
[18] = biological target: IgG1 heavy chain with CH3 construct 1 (E356K, D399K) (human) [IgG part: P01857]; test: native MS; transfection S: vectors IV+V+VI 2:1:1; homodimer of vector IV
[19] = biological target: IgG1 heavy chain with CH3 construct 1 (E356K, D399K) (human) [IgG part: P01857]; test: native MS; transfection B: vector IV alone (thyroglobulin VH, construct 1)
[20] = biological target: IgG1 heavy chain with CH3 construct 1 (E356K, D399K) (human) [IgG part: P01857]; test: native MS; transfection T: vectors IV+VII+VIII 2:1:1; homodimer of vector IV
[21] = biological target: IgG1 heavy chain with CH3 construct 2 (K392D, K409D) (human) [IgG part: P01857]; test: native MS; transfection S: vectors IV+V+VI 2:1:1; BC = vector IV with vector V
[22] = biological target: IgG1 heavy chain with CH3 construct 2 (K392D, K409D) (human) [IgG part: P01857]; test: native MS; transfection S: vectors IV+V+VI 2:1:1; AB = vector IV with vector VI
[23] = biological target: IgG1 heavy chain with CH3 construct 3 (K392D, K409D, K439D) (human) [IgG part: P01857]; test: native MS; transfection L: vectors IV+VII+VIII 1:1:1; BC = vector IV with vector VII
[24] = biological target: IgG1 heavy chain with CH3 construct 3 (K392D, K409D, K439D) (human) [IgG part: P01857]; test: native MS; transfection T: vectors IV+VII+VIII 2:1:1; BC = vector IV with vector VII
[25] = biological target: IgG1 heavy chain with CH3 construct 3 (K392D, K409D, K439D) (human) [IgG part: P01857]; test: native MS; transfection L: vectors IV+VII+VIII 1:1:1; AB = vector IV with vector VIII
[26] = biological target: IgG1 heavy chain with CH3 construct 3 (K392D, K409D, K439D) (human) [IgG part: P01857]; test: native MS; transfection T: vectors IV+VII+VIII 2:1:1; AB = vector IV with vector VIII
[27] = biological target: IgG1 heavy chain with CH3 construct 2 (K392D, K409D) (human) [IgG part: P01857]; test: native MS (peak height); transfection #11 of Table 24; CC = C (fibrinogen)/1 with C/2
[28] = biological target: IgG1 heavy chain with CH3 construct 2 (K392D, K409D) (human) [IgG part: P01857]; test: native MS (peak height); transfection #9 of Table 24; CD = C (fibrinogen)/1 with D (RTK2)/2
[29] = biological target: IgG1 heavy chain with CH3 construct 2 (K392D, K409D) (human) [IgG part: P01857]; test: native MS; transfection K: vectors IV+V+VI 1:1:1; BC = vector IV with vector V (fibrinogen VH)
[30] = biological target: IgG1 heavy chain with CH3 construct 72 (L351D, R355D) (human) [IgG part: P01857]; test: native MS; combination 8 co-expressed (A: VH MF1337, B: VH MF1122)
[31] = biological target: IgG1 heavy chain with CH3 construct 72 (L351D, R355D) (human) [IgG part: P01857]; test: SDS-PAGE of protein A-purified supernatant; construct expressed alone
[32] = biological target: IgG1 heavy chain with CH3 construct 67 (K360D) (human) [IgG part: P01857]; test: native MS; transfection ZS: vectors XI+XX co-expressed
[33] = biological target: IgG1 heavy chain with wildtype CH3 (construct vector MV1057, wildtype IgG1 Fc) (human) [IgG part: P01857]; test: native MS; transfection M: vectors I+II co-expressed 1:1
[34] = biological target: IgG1 heavy chain with wildtype CH3 (construct vector MV1057, wildtype IgG1 Fc) (human) [IgG part: P01857]; test: native MS; transfection N: vectors I+III co-expressed 1:1
[35] = biological target: IgG1 heavy chain with wildtype CH3 (construct vector MV1057, wildtype IgG1 Fc) (human) [IgG part: P01857]; test: native MS; transfection U: vectors I+III co-expressed 1:5
[36] = biological target: IgG1 heavy chain with wildtype CH3 (construct vector MV1057, wildtype IgG1 Fc) (human) [IgG part: P01857]; test: native MS; transfection O: vectors I+II+III co-expressed 1:1:1
[37] = biological target: IgG1 heavy chain with wildtype CH3 (construct vector MV1057, wildtype IgG1 Fc) (human) [IgG part: P01857]; test: native MS; transfection V: vectors I+II+III co-expressed 1:1:10
[38] = biological target: IgG1 heavy chain with wildtype CH3 (construct vector MV1057, wildtype IgG1 Fc) (human) [IgG part: P01857]; test: native MS; transfection A: vector I alone (VH MF1337, wildtype CH3)
[39] = biological target: IgG1 heavy chain with CH3 construct 5 (E356K, E357K, K439D, K370D) (human) [IgG part: P01857]; test: native MS; transfection N: vectors I+III co-expressed 1:1
[40] = biological target: IgG1 heavy chain with CH3 construct 5 (E356K, E357K, K439D, K370D) (human) [IgG part: P01857]; test: native MS; transfection U: vectors I+III co-expressed 1:5
[41] = biological target: IgG1 heavy chain with CH3 construct 5 (E356K, E357K, K439D, K370D) (human) [IgG part: P01857]; test: native MS; transfection O: vectors I+II+III co-expressed 1:1:1
[42] = biological target: IgG1 heavy chain with CH3 construct 5 (E356K, E357K, K439D, K370D) (human) [IgG part: P01857]; test: native MS; transfection V: vectors I+II+III co-expressed 1:1:10
[43] = biological target: IgG1 heavy chain with CH3 construct 5 (E356K, E357K, K439D, K370D) (human) [IgG part: P01857]; test: native MS; transfection H: vector III alone (VH MF1122, construct 5)
[44] = biological target: IgG1 heavy chain with CH3 construct 66 (V397D) (human) [IgG part: P01857]; test: native MS; transfection ZR: vectors XV+XIX co-expressed
[45] = biological target: IgG1 heavy chain with CH3 construct 64 (T366D) (human) [IgG part: P01857]; test: native MS; transfection ZP: vectors XIV+XVII co-expressed
[46] = biological target: IgG1 heavy chain with CH3 construct 64 (T366D) (human) [IgG part: P01857]; test: native MS; combination 15 co-expressed (A: VH MF1337, B: VH MF1122)
[47] = biological target: IgG1 heavy chain with CH3 construct 76 (L351K, L368K) (human) [IgG part: P01857]; test: as above
[48] = biological target: IgG1 heavy chain with CH3 construct 64 (T366D) (human) [IgG part: P01857]; test: native MS; combination 16 co-expressed (A: VH MF1337, B: VH MF1122)
[49] = biological target: IgG1 heavy chain with CH3 construct 77 (L351R) (human) [IgG part: P01857]; test: as above
[50] = biological target: IgG1 heavy chain with CH3 construct 64 (T366D) (human) [IgG part: P01857]; test: SDS-PAGE of protein A-purified supernatant; construct expressed alone

IgG1 heavy chain with CH3 construct 63 (L351D) (from UniProt P01857-1)
CC found (%) [1]: 7% | CC found (%) [2]: 16% | CC found (%) [3]: 10% | CC found (%) [4]: 23% | CC found (%) [5]: 2.4% | % BB found [6]: 3% | % BB found [7]: 12% | % IgG [8]: 89.8% | % half molecule [8]: 10.2%

IgG1 heavy chain with CH3 construct 65 (S354D, Y349D) (from UniProt P01857-1)
CC found (%) [9]: 33%

IgG1 heavy chain with CH3 construct 4 (K392D, D399K, K409D) (from UniProt P01857-1)
BB found (%) [10]: 45% | BB found (%) [11]: 4% | BB found (%) [12]: 81% | BB found (%) [13]: 100%

IgG1 heavy chain with CH3 construct 1 (E356K, D399K) (from UniProt P01857-1)
Bispecific found (%) [14]: 47% | Bispecific found (%) [15]: 96% | Bispecific found (%) [16]: 96% | % IgG [17]: 64.2% | % half molecule [17]: 35.8% | Other molecules (%) [18]: 3% | Full IgG found (%) [19]: 60% | Half molecules found (%) [19]: 40% | Other molecules (%) [20]: 3% | Bispecific found (%) [21]: 42% | Bispecific found (%) [22]: 55% | Bispecific found (%) [23]: 16% | Bispecific found (%) [24]: 58% | Bispecific found (%) [25]: 60% | Bispecific found (%) [26]: 39% | percent of species in the mixture [27]: 61% | percent of species in the mixture [28]: 67% | Bispecific found (%) [29]: 38%

IgG1 heavy chain with CH3 construct 72 (L351D, R355D) (from UniProt P01857-1)
% BB found [30]: 8% | % IgG [31]: 100%

IgG1 heavy chain with CH3 construct 67 (K360D) (from UniProt P01857-1)
CC found (%) [32]: 15%

IgG1 heavy chain with wildtype CH3 (construct vector MV1057, wildtype IgG1 Fc) (from UniProt P01857-1)
AA found (%) [33]: 51% | AA found (%) [34]: 88% | AA found (%) [35]: 47% | AA found (%) [36]: 66% | AA found (%) [37]: 8% | AA found (%) [38]: 100%

IgG1 heavy chain with CH3 construct 5 (E356K, E357K, K439D, K370D) (from UniProt P01857-1)
CC found (%) [39]: 9% | CC found (%) [40]: 48% | CC found (%) [41]: 30% | CC found (%) [42]: 9% | CC found (%) [43]: 100%

IgG1 heavy chain with CH3 construct 66 (V397D) (from UniProt P01857-1)
CC found (%) [44]: 11%

IgG1 heavy chain with CH3 construct 64 (T366D) (from UniProt P01857-1)
CC found (%) [45]: 13% | % AA found [46]: 3% | % AB found [47]: 92% | % AA found [48]: 30% | % AB found [49]: 69% | % IgG [50]: 89.6% | % half molecule [50]: 10.4%

From patent publication US20150139996A1
